In the supplement of paper PMC10567573 one finds protein stability index data, which are given here for 94 variants.

First the molecules themselves.
B1: ALDH8A1 (parent)
chain: WSSRSPQERSRVLNQVADLLEQSL
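Also: lentivirally expressed fusions sorted by FACS into six bins by GFP to DsRed ratio, PSI derived from sequencing read proportions per bin multiplied by bin number.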

In the series the parent is B1. The experiment in a line: protein stability index of a GFP-peptide fusion (GPS, HEK-293T) (PSI 1-6); higher = more stable. The settings on record: c terminus: a fixed tail appended.
Turning to WSSRSPQERSRVLNQVAPLLEQSL, the protein stability index was found to be 3.02.

WSSRSPQERSRVLNQVAFLLEQSL: the protein stability index was determined as 1.48.

Turning to WSSRSPQERSRVLNQVAYLLEQSL, the protein stability index came to 1.81.

In the case of WSSRSPQERSRVLNQVAMLLEQSL, the protein stability index amounted to 2.17.

Turning to WSSRSPQERSRVLNQVASLLEQSL, the protein stability index came out at 2.23.

With WSSRSPQERSRVLNQVAKLLEQSL, the protein stability index was found to be 1.47.

Consider WSSRSPKERSRVLNQVADLLEQSL, for which the protein stability index is 2.61.

On to WSSRSPCERSRVLNQVADLLEQSL, for which the protein stability index came out at 2.24.

On to WSSRSPQERSRVLNQGADLLEQSL, for which the protein stability index is 4.12.

For the variant WSSRSPQERSRVLNQYADLLEQSL, the protein stability index worked out at 2.29.

Take WSSRSPQERSRVLNQEADLLEQSL: the protein stability index was 4.6.

On to WSSRSPQERSRVLNQNADLLEQSL, for which the protein stability index came out at 4.2.

Consider WSSRSPQERSRVLNQKADLLEQSL, for which the protein stability index is 3.71.

With WSSRSPQERSRVLNQFADLLEQSL, the protein stability index worked out at 1.92.

Consider WSSRSPQERSRVLNQQADLLEQSL, for which the protein stability index is 4.62.

For the variant WSERSPQERSRVLNQVADLLEQSL, the protein stability index came out at 3.5.

Consider WSFRSPQERSRVLNQVADLLEQSL, for which the protein stability index was 1.88.

In the case of WSARSPQERSRVLNQVADLLEQSL, the protein stability index stood at 1.98.

WSRRSPQERSRVLNQVADLLEQSL: the protein stability index was 2.28.

Consider WSMRSPQERSRVLNQVADLLEQSL, for which the protein stability index worked out at 2.27.

WSYRSPQERSRVLNQVADLLEQSL: the protein stability index was determined as 2.25.

For the variant WSPRSPQERSRVLNQVADLLEQSL, the protein stability index was 2.54.

Take WSSRSPQERSGVLNQVADLLEQSL: the protein stability index worked out at 2.91.

In the case of WSSRSPQERSVVLNQVADLLEQSL, the protein stability index amounted to 2.68.

Consider WSSRSPQERSMVLNQVADLLEQSL, for which the protein stability index was 1.55.

Turning to WSSRSPQERSSVLNQVADLLEQSL, the protein stability index was 2.74.

For the variant WSSRSPQERSRVLNQVADLLENSL, the protein stability index was found to be 2.61.

Turning to WASRSPQERSRVLNQVADLLEQSL, the protein stability index is 1.99.

As to WCSRSPQERSRVLNQVADLLEQSL, the protein stability index turned out to be 1.87.

Consider WMSRSPQERSRVLNQVADLLEQSL, for which the protein stability index was 2.51.

As to WISRSPQERSRVLNQVADLLEQSL, the protein stability index was found to be 1.78.

WTSRSPQERSRVLNQVADLLEQSL: the protein stability index was 2.46.

As for WRSRSPQERSRVLNQVADLLEQSL, the protein stability index was found to be 2.81.

WWSRSPQERSRVLNQVADLLEQSL: the protein stability index turned out to be 1.92.

Regarding WGSRSPQERSRVLNQVADLLEQSL, the protein stability index was found to be 2.5.

With HSSRSPQERSRVLNQVADLLEQSL, the protein stability index stood at 3.56.

Consider CSSRSPQERSRVLNQVADLLEQSL, for which the protein stability index came out at 2.78.

Turning to DSSRSPQERSRVLNQVADLLEQSL, the protein stability index turned out to be 3.69.

For the variant ASSRSPQERSRVLNQVADLLEQSL, the protein stability index stood at 3.21.

In the case of LSSRSPQERSRVLNQVADLLEQSL, the protein stability index is 2.91.

As to TSSRSPQERSRVLNQVADLLEQSL, the protein stability index came out at 3.39.

With SSSRSPQERSRVLNQVADLLEQSL, the protein stability index is 3.69.

Consider GSSRSPQERSRVLNQVADLLEQSL, for which the protein stability index stood at 3.44.

On to WSSRSPQERSRVLNQVADLIEQSL, for which the protein stability index was found to be 2.28.

As for WSSRSPQERSRVLNQVADLREQSL, the protein stability index is 3.5.

Take WSSRSPQERSRVLNQVADLAEQSL: the protein stability index amounted to 3.59.

Take WSSRSPQERSRVLNQVADLTEQSL: the protein stability index was 4.08.

In the case of WSSRSPQERSRVLNQVADLCEQSL, the protein stability index amounted to 3.45.

For WSSRSPQERSRVLNQVADLHEQSL, the protein stability index was 3.86.

Regarding WSSRSPQERSRVLNQVADLEEQSL, the protein stability index is 4.43.

WSSRSPQERSRVLNQVADLVEQSL: the protein stability index worked out at 3.03.

For WSSRAPQERSRVLNQVADLLEQSL, the protein stability index is 2.62.

On to WSSRNPQERSRVLNQVADLLEQSL, for which the protein stability index came to 2.43.

Consider WSSRYPQERSRVLNQVADLLEQSL, for which the protein stability index was 1.6.

For WSSRDPQERSRVLNQVADLLEQSL, the protein stability index is 2.85.

Take WSSRFPQERSRVLNQVADLLEQSL: the protein stability index came to 1.99.

Turning to WSSRMPQERSRVLNQVADLLEQSL, the protein stability index is 2.54.

As for WSSRKPQERSRVLNQVADLLEQSL, the protein stability index worked out at 2.52.

As to WSSRSSQERSRVLNQVADLLEQSL, the protein stability index stood at 2.8.

For the variant WSSRSIQERSRVLNQVADLLEQSL, the protein stability index was 2.44.

As for WSSRSNQERSRVLNQVADLLEQSL, the protein stability index amounted to 2.6.

For WSSRSEQERSRVLNQVADLLEQSL, the protein stability index was 3.07.

Regarding WSSRSAQERSRVLNQVADLLEQSL, the protein stability index stood at 2.13.

WSSRSMQERSRVLNQVADLLEQSL: the protein stability index was 1.99.

As to WSSRSLQERSRVLNQVADLLEQSL, the protein stability index was 2.17.

For WSSRSVQERSRVLNQVADLLEQSL, the protein stability index was determined as 2.39.

In the case of WSSRSPQEKSRVLNQVADLLEQSL, the protein stability index is 2.83.

WSSRSPQENSRVLNQVADLLEQSL: the protein stability index came to 2.86.

Turning to WSSRSPQEWSRVLNQVADLLEQSL, the protein stability index came out at 2.22.

For the variant WSSRSPQEISRVLNQVADLLEQSL, the protein stability index was found to be 2.44.

Consider WSSRSPQERSRVLNQVADLLGQSL, for which the protein stability index came out at 2.24.

Take WSSRSPQERSRVLNQVADLLPQSL: the protein stability index was determined as 3.24.

WSSRSPQERSRVLNQVADLLAQSL: the protein stability index stood at 2.13.

Consider WSSRSPQCRSRVLNQVADLLEQSL, for which the protein stability index came to 1.6.

Regarding WSSRSPQRRSRVLNQVADLLEQSL, the protein stability index is 2.88.

In the case of WSSRSPQKRSRVLNQVADLLEQSL, the protein stability index amounted to 2.04.

As to WSSRSPQERSRVLNQVFDLLEQSL, the protein stability index amounted to 2.58.

On to WSSRSPQERSRVLNQVNDLLEQSL, for which the protein stability index was 3.3.

Turning to WSSRSPQERSRVLNQVIDLLEQSL, the protein stability index is 2.42.

In the case of WSSRSPQERSRVLNQVYDLLEQSL, the protein stability index is 2.15.

As for WSSRSPQERSRVLNQVWDLLEQSL, the protein stability index stood at 2.33.

Consider WSSRSPQERSRCLNQVADLLEQSL, for which the protein stability index was determined as 2.35.

As for WSSRSPQERSRELNQVADLLEQSL, the protein stability index came out at 3.88.

Consider WSSMSPQERSRVLNQVADLLEQSL, for which the protein stability index came out at 2.22.

As to WSSISPQERSRVLNQVADLLEQSL, the protein stability index amounted to 2.64.

For the variant WSSCSPQERSRVLNQVADLLEQSL, the protein stability index amounted to 1.68.

Regarding WSSPSPQERSRVLNQVADLLEQSL, the protein stability index stood at 2.64.

In the case of WSSRSPQERSRVLGQVADLLEQSL, the protein stability index was found to be 2.38.

With WSSRSPQERSRVLDQVADLLEQSL, the protein stability index was found to be 2.28.

With WSSRSPQERSRVLMQVADLLEQSL, the protein stability index is 1.79.

For WSSRSPQERSRVLCQVADLLEQSL, the protein stability index is 2.21.

As for WSSRSPQERSRVLNQVADLLEQTL, the protein stability index worked out at 1.94.

As for WSSRSPQERSRVLNQVADLLEQHL, the protein stability index stood at 2.77.

Turning to WSSRSPQERSRVLNQVADLLEQAL, the protein stability index worked out at 2.31.
